Laboratory results as given in patent publication US20260167681A1 (POSTECH RESEARCH AND BUSINESS DEVELOPMENT FOUNDATION, published 2026).

Target: T1, ovalbumin (OVA) (UniProt P01012 2-386)
T1 construct: also called model antigen ovalbumin
T1 sequence (looked up): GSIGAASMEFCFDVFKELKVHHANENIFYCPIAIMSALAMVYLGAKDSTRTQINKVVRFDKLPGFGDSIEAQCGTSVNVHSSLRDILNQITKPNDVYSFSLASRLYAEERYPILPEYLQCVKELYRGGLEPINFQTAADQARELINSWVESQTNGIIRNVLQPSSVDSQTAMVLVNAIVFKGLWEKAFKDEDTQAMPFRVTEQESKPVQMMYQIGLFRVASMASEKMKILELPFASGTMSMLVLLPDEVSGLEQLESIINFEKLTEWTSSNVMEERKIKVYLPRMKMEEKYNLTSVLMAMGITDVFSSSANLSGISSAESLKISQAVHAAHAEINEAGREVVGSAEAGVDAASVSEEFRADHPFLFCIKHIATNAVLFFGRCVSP
Assay: zeta potential (DLS, Zetasizer) of ovalbumin/MAP-AP mixtures at weight ratios 2, 1 and 0.5
Method: First, ovalbumin and the adhesive adjuvant protein (MAP-AP) were prepared at a concentration of 1 mg/mL each, and nanocomplexes were then prepared with ovalbumin and MAP-AP at weight ratios of 2, 1, and 0.5, respectively. Dynamic light scattering (DLS, Zetasizer, UK) was used to measure the surface charge of the samples. The concentration of each substance was maintained below 1 mg/mL, and all measurements were performed at room temperature.
As a result, the spontaneous formation of nanocomplexes by the negatively charged ovalbumin and adhesive adjuvant protein (MAP-AP) was confirmed through changes in surface charge. When the mass ratio of ovalbumin to MAP-AP reached 1 or higher, the adhesive adjuvant protein (MAP-AP) became saturated, and the mass ratio was ultimately set to 1.

B1: adhesive adjuvant protein (MAP-AP; MAP-based Adjuvant Protein) (other)
chain: MAKPSYPPTYKAKPSYPPTYKAKPSYPPTYKAKPSYPPTYKAKPSYPPTYKAKPSYPPTYKPWSSEEYKGGYYPGNTYHYHSGGSYHGSGYHGGYKGKYYGKAKKYYYKYKNSGKYKYLKKARKYHRKGYKKYYGGGSSAKPSYPPTYKAKPSYPPTYKAKPSYPPTYKAKPSYPPTYKAKPSYPPTYKAKPSYPPTYKLGGGGSAKFVAAWTLKAAA
notes: Recombinant fusion protein made in E. coli; also called MAP-based Adhesive adjuvant protein
**Q.** For B1, which “mass ratio of ovalbumin to MAP-AP at which MAP-AP is saturated” value is on record?
**A.** ≥ 1 mass ratio (ovalbumin:MAP-AP)
